Measured values taken from US20240166750A1 (published 2024).

What was measured:
[1] = molecular target: T1, Recombinant human FcγRIIIa-V158 (human, UniProt P08637 17-208); test: SPR; -kif
[2] = molecular target: T1, Recombinant human FcγRIIIa-V158; test: SPR; +kif

T1 sequence (P08637 17-208 F176V): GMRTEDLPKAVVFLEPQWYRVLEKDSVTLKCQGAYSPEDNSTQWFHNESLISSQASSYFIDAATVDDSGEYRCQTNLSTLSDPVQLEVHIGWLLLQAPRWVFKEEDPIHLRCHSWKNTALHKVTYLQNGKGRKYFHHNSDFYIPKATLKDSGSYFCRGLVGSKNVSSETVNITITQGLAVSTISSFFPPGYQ

Kd [1] [nM] | Kd [2] [nM] | Binder
41.8 |  | human IgG1 antibody specific for protein 4, S239D/S298A + R292C/V302C, -Kif (antibody) ASTKGPSVFPLAPSSKSTSGGTAALGCLVKDYFPEPVTVSWNSGALTSGVHTFPAVLQSSGLYSLSSVVTVPSSSLGTQTYICNVNHKPSNTKVDKKVEPKSCDKTHTCPPCPAPELLGGPDVFLFPPKPKDTLMISRTPEVTCVVVDVSHEDPEVKFNWYVDGVEVHNAKTKPCEEQYNATYRCVSVLTVLHQDWLNGKEYKCKVSNKALPAPIEKTISKAKGQPREPQVYTLPPSRDELTKNQVSLTCLVKGFYPSDIAVEWESNGQPENNYKTTPPVLDSDGSFFLYSKLTVDKSRWQQGNVFSCSVMHEALHNHYTQKSLSLSPGK
60.4 |  | human IgG1 antibody specific for protein 4, S239D + T256D/T307Q, -Kif (antibody) ASTKGPSVFPLAPSSKSTSGGTAALGCLVKDYFPEPVTVSWNSGALTSGVHTFPAVLQSSGLYSLSSVVTVPSSSLGTQTYICNVNHKPSNTKVDKKVEPKSCDKTHTCPPCPAPELLGGPDVFLFPPKPKDTLMISRDPEVTCVVVDVSHEDPEVKFNWYVDGVEVHNAKTKPREEQYNSTYRVVSVLQVLHQDWLNGKEYKCKVSNKALPAPIEKTISKAKGQPREPQVYTLPPSRDELTKNQVSLTCLVKGFYPSDIAVEWESNGQPENNYKTTPPVLDSDGSFFLYSKLTVDKSRWQQGNVFSCSVMHEALHNHYTQKSLSLSPGK
 | 19.7 | human IgG1 antibody specific for protein 4, S239D + T256D/T307Q, +Kif (antibody) ASTKGPSVFPLAPSSKSTSGGTAALGCLVKDYFPEPVTVSWNSGALTSGVHTFPAVLQSSGLYSLSSVVTVPSSSLGTQTYICNVNHKPSNTKVDKKVEPKSCDKTHTCPPCPAPELLGGPDVFLFPPKPKDTLMISRDPEVTCVVVDVSHEDPEVKFNWYVDGVEVHNAKTKPREEQYNSTYRVVSVLQVLHQDWLNGKEYKCKVSNKALPAPIEKTISKAKGQPREPQVYTLPPSRDELTKNQVSLTCLVKGFYPSDIAVEWESNGQPENNYKTTPPVLDSDGSFFLYSKLTVDKSRWQQGNVFSCSVMHEALHNHYTQKSLSLSPGK
30.7 |  | human IgG1 antibody specific for protein 4, S239D/S298A + T256D/T307Q, -Kif (antibody) ASTKGPSVFPLAPSSKSTSGGTAALGCLVKDYFPEPVTVSWNSGALTSGVHTFPAVLQSSGLYSLSSVVTVPSSSLGTQTYICNVNHKPSNTKVDKKVEPKSCDKTHTCPPCPAPELLGGPDVFLFPPKPKDTLMISRDPEVTCVVVDVSHEDPEVKFNWYVDGVEVHNAKTKPREEQYNATYRVVSVLQVLHQDWLNGKEYKCKVSNKALPAPIEKTISKAKGQPREPQVYTLPPSRDELTKNQVSLTCLVKGFYPSDIAVEWESNGQPENNYKTTPPVLDSDGSFFLYSKLTVDKSRWQQGNVFSCSVMHEALHNHYTQKSLSLSPGK
68.6 |  | human IgG1 antibody specific for protein 4, S239D + R292C/V302C, -Kif (antibody) ASTKGPSVFPLAPSSKSTSGGTAALGCLVKDYFPEPVTVSWNSGALTSGVHTFPAVLQSSGLYSLSSVVTVPSSSLGTQTYICNVNHKPSNTKVDKKVEPKSCDKTHTCPPCPAPELLGGPDVFLFPPKPKDTLMISRTPEVTCVVVDVSHEDPEVKFNWYVDGVEVHNAKTKPCEEQYNSTYRCVSVLTVLHQDWLNGKEYKCKVSNKALPAPIEKTISKAKGQPREPQVYTLPPSRDELTKNQVSLTCLVKGFYPSDIAVEWESNGQPENNYKTTPPVLDSDGSFFLYSKLTVDKSRWQQGNVFSCSVMHEALHNHYTQKSLSLSPGK
 | 12.8 | human IgG1 antibody specific for protein 4, S239D/S298A + T256D/T307Q + R292C/V302C, +Kif (antibody) ASTKGPSVFPLAPSSKSTSGGTAALGCLVKDYFPEPVTVSWNSGALTSGVHTFPAVLQSSGLYSLSSVVTVPSSSLGTQTYICNVNHKPSNTKVDKKVEPKSCDKTHTCPPCPAPELLGGPDVFLFPPKPKDTLMISRDPEVTCVVVDVSHEDPEVKFNWYVDGVEVHNAKTKPCEEQYNATYRCVSVLQVLHQDWLNGKEYKCKVSNKALPAPIEKTISKAKGQPREPQVYTLPPSRDELTKNQVSLTCLVKGFYPSDIAVEWESNGQPENNYKTTPPVLDSDGSFFLYSKLTVDKSRWQQGNVFSCSVMHEALHNHYTQKSLSLSPGK
 | 5.46 | human IgG1 antibody specific for protein 4, S239D/I332E + R292C/V302C, +Kif (antibody) ASTKGPSVFPLAPSSKSTSGGTAALGCLVKDYFPEPVTVSWNSGALTSGVHTFPAVLQSSGLYSLSSVVTVPSSSLGTQTYICNVNHKPSNTKVDKKVEPKSCDKTHTCPPCPAPELLGGPDVFLFPPKPKDTLMISRTPEVTCVVVDVSHEDPEVKFNWYVDGVEVHNAKTKPCEEQYNSTYRCVSVLTVLHQDWLNGKEYKCKVSNKALPAPEEKTISKAKGQPREPQVYTLPPSRDELTKNQVSLTCLVKGFYPSDIAVEWESNGQPENNYKTTPPVLDSDGSFFLYSKLTVDKSRWQQGNVFSCSVMHEALHNHYTQKSLSLSPGK
 | 8.76 | human IgG1 antibody specific for protein 4, S239D/S298A + R292C/V302C, +Kif (antibody) ASTKGPSVFPLAPSSKSTSGGTAALGCLVKDYFPEPVTVSWNSGALTSGVHTFPAVLQSSGLYSLSSVVTVPSSSLGTQTYICNVNHKPSNTKVDKKVEPKSCDKTHTCPPCPAPELLGGPDVFLFPPKPKDTLMISRTPEVTCVVVDVSHEDPEVKFNWYVDGVEVHNAKTKPCEEQYNATYRCVSVLTVLHQDWLNGKEYKCKVSNKALPAPIEKTISKAKGQPREPQVYTLPPSRDELTKNQVSLTCLVKGFYPSDIAVEWESNGQPENNYKTTPPVLDSDGSFFLYSKLTVDKSRWQQGNVFSCSVMHEALHNHYTQKSLSLSPGK
 | 7.59 | human IgG1 antibody specific for protein 4, S239D/I332E + T256D/T307Q, +Kif (antibody) ASTKGPSVFPLAPSSKSTSGGTAALGCLVKDYFPEPVTVSWNSGALTSGVHTFPAVLQSSGLYSLSSVVTVPSSSLGTQTYICNVNHKPSNTKVDKKVEPKSCDKTHTCPPCPAPELLGGPDVFLFPPKPKDTLMISRDPEVTCVVVDVSHEDPEVKFNWYVDGVEVHNAKTKPREEQYNSTYRVVSVLQVLHQDWLNGKEYKCKVSNKALPAPEEKTISKAKGQPREPQVYTLPPSRDELTKNQVSLTCLVKGFYPSDIAVEWESNGQPENNYKTTPPVLDSDGSFFLYSKLTVDKSRWQQGNVFSCSVMHEALHNHYTQKSLSLSPGK
15.1 |  | human IgG1 antibody specific for protein 4, S239D/I332E + T256D/T307Q + R292C/V302C, -Kif (antibody) ASTKGPSVFPLAPSSKSTSGGTAALGCLVKDYFPEPVTVSWNSGALTSGVHTFPAVLQSSGLYSLSSVVTVPSSSLGTQTYICNVNHKPSNTKVDKKVEPKSCDKTHTCPPCPAPELLGGPDVFLFPPKPKDTLMISRDPEVTCVVVDVSHEDPEVKFNWYVDGVEVHNAKTKPCEEQYNSTYRCVSVLQVLHQDWLNGKEYKCKVSNKALPAPEEKTISKAKGQPREPQVYTLPPSRDELTKNQVSLTCLVKGFYPSDIAVEWESNGQPENNYKTTPPVLDSDGSFFLYSKLTVDKSRWQQGNVFSCSVMHEALHNHYTQKSLSLSPGK
 | 153 | human IgG1 antibody specific for protein 4, T256D/T307Q + R292C/V302C, +Kif (antibody) ASTKGPSVFPLAPSSKSTSGGTAALGCLVKDYFPEPVTVSWNSGALTSGVHTFPAVLQSSGLYSLSSVVTVPSSSLGTQTYICNVNHKPSNTKVDKKVEPKSCDKTHTCPPCPAPELLGGPSVFLFPPKPKDTLMISRDPEVTCVVVDVSHEDPEVKFNWYVDGVEVHNAKTKPCEEQYNSTYRCVSVLQVLHQDWLNGKEYKCKVSNKALPAPIEKTISKAKGQPREPQVYTLPPSRDELTKNQVSLTCLVKGFYPSDIAVEWESNGQPENNYKTTPPVLDSDGSFFLYSKLTVDKSRWQQGNVFSCSVMHEALHNHYTQKSLSLSPGK
 | 8.97 | human IgG1 antibody specific for protein 4, S239D + R292C/V302C, +Kif (antibody) ASTKGPSVFPLAPSSKSTSGGTAALGCLVKDYFPEPVTVSWNSGALTSGVHTFPAVLQSSGLYSLSSVVTVPSSSLGTQTYICNVNHKPSNTKVDKKVEPKSCDKTHTCPPCPAPELLGGPDVFLFPPKPKDTLMISRTPEVTCVVVDVSHEDPEVKFNWYVDGVEVHNAKTKPCEEQYNSTYRCVSVLTVLHQDWLNGKEYKCKVSNKALPAPIEKTISKAKGQPREPQVYTLPPSRDELTKNQVSLTCLVKGFYPSDIAVEWESNGQPENNYKTTPPVLDSDGSFFLYSKLTVDKSRWQQGNVFSCSVMHEALHNHYTQKSLSLSPGK
 | 14 | human IgG1 antibody specific for protein 4, S239D/S298A + T256D/T307Q, +Kif (antibody) ASTKGPSVFPLAPSSKSTSGGTAALGCLVKDYFPEPVTVSWNSGALTSGVHTFPAVLQSSGLYSLSSVVTVPSSSLGTQTYICNVNHKPSNTKVDKKVEPKSCDKTHTCPPCPAPELLGGPDVFLFPPKPKDTLMISRDPEVTCVVVDVSHEDPEVKFNWYVDGVEVHNAKTKPREEQYNATYRVVSVLQVLHQDWLNGKEYKCKVSNKALPAPIEKTISKAKGQPREPQVYTLPPSRDELTKNQVSLTCLVKGFYPSDIAVEWESNGQPENNYKTTPPVLDSDGSFFLYSKLTVDKSRWQQGNVFSCSVMHEALHNHYTQKSLSLSPGK
 | 13.1 | human IgG1 antibody specific for protein 4, S239D + T256D/T307Q + R292C/V302C, +Kif (antibody) ASTKGPSVFPLAPSSKSTSGGTAALGCLVKDYFPEPVTVSWNSGALTSGVHTFPAVLQSSGLYSLSSVVTVPSSSLGTQTYICNVNHKPSNTKVDKKVEPKSCDKTHTCPPCPAPELLGGPDVFLFPPKPKDTLMISRDPEVTCVVVDVSHEDPEVKFNWYVDGVEVHNAKTKPCEEQYNSTYRCVSVLQVLHQDWLNGKEYKCKVSNKALPAPIEKTISKAKGQPREPQVYTLPPSRDELTKNQVSLTCLVKGFYPSDIAVEWESNGQPENNYKTTPPVLDSDGSFFLYSKLTVDKSRWQQGNVFSCSVMHEALHNHYTQKSLSLSPGK
11.1 |  | human IgG1 antibody specific for protein 4, S239D/I332E + R292C/V302C, -Kif (antibody) ASTKGPSVFPLAPSSKSTSGGTAALGCLVKDYFPEPVTVSWNSGALTSGVHTFPAVLQSSGLYSLSSVVTVPSSSLGTQTYICNVNHKPSNTKVDKKVEPKSCDKTHTCPPCPAPELLGGPDVFLFPPKPKDTLMISRTPEVTCVVVDVSHEDPEVKFNWYVDGVEVHNAKTKPCEEQYNSTYRCVSVLTVLHQDWLNGKEYKCKVSNKALPAPEEKTISKAKGQPREPQVYTLPPSRDELTKNQVSLTCLVKGFYPSDIAVEWESNGQPENNYKTTPPVLDSDGSFFLYSKLTVDKSRWQQGNVFSCSVMHEALHNHYTQKSLSLSPGK
 | 5.24 | human IgG1 antibody specific for protein 4, S239D/I332E + T256D/T307Q + R292C/V302C, +Kif (antibody) ASTKGPSVFPLAPSSKSTSGGTAALGCLVKDYFPEPVTVSWNSGALTSGVHTFPAVLQSSGLYSLSSVVTVPSSSLGTQTYICNVNHKPSNTKVDKKVEPKSCDKTHTCPPCPAPELLGGPDVFLFPPKPKDTLMISRDPEVTCVVVDVSHEDPEVKFNWYVDGVEVHNAKTKPCEEQYNSTYRCVSVLQVLHQDWLNGKEYKCKVSNKALPAPEEKTISKAKGQPREPQVYTLPPSRDELTKNQVSLTCLVKGFYPSDIAVEWESNGQPENNYKTTPPVLDSDGSFFLYSKLTVDKSRWQQGNVFSCSVMHEALHNHYTQKSLSLSPGK
